Measurements reported in article doi:10.1101/2021.12.08.471876 (bioRxiv, 2021).

B1: GST-preS1 truncated protein preS1-p3 (residues 66-119) (domain or fragment)
chain: GFTPPHGGLLGWSPQAQGILTTLPAAPPPASTNRQSGRQPTPISPPLRDSHPQA
B2: GST-preS1 truncated protein preS1-p2 (residues 25-90) (domain or fragment)
chain: FPDHQLDPAFGANSNNPDWDFNPNKDHWPEANQVGAGAFGPGFTPPHGGLLGWSPQAQGILTTLPA

How the values were obtained:
[1] = target: T1, purified recombinant GRP78 protein (GRP78-His) (human, UniProt P11021 19-654, NT-647 fluorescent label (in the MST only)); experiment: ITC
T1 sequence (P11021 19-654): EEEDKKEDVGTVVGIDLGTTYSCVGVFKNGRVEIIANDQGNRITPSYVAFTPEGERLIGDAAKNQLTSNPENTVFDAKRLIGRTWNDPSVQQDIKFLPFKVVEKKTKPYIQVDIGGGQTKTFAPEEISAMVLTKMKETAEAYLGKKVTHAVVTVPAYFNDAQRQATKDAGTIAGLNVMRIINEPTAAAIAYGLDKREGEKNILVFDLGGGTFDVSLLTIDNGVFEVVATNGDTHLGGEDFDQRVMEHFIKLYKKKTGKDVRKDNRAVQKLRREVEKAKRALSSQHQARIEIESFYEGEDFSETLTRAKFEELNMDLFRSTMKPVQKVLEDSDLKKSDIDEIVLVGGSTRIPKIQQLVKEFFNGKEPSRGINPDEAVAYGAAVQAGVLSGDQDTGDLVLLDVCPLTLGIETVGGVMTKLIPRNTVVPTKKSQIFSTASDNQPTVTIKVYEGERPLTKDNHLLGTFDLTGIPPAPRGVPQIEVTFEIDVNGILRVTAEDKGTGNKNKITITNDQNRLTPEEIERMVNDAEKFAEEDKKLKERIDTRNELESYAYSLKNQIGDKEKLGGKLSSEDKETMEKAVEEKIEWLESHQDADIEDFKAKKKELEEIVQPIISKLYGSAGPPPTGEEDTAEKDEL

[2] = target: T1, purified recombinant GRP78 protein …; experiment: MST

| Binder | Kd [1] [µM] | Kd [2] [µM] |
| --- | --- | --- |
| QGIMQTVPAN [pep59] | 0.0106 | – |
| B1 | – | 0.431 |
| B2 | – | 1.2 |
| DPAFGANSL [pep56] | 0.00659 | – |
